{
  "source": "patent US20250197451A1",
  "about": "(CAPITAL MEDICAL UNIVERSITY SCHOOL OF STOMATOLOGY, published 2025)",
  "data": [
    {"molecular_target": "T1, biotin-labelled EZH2 protein (UniProt Q15910 1-746, limits assumed, biotin label (EZ-link NHS-PEO4-Biotinylation kit))", "T1 construct": "Probe in solution (1 ug/ml) on the KDM2B peptide microarray; also called NHS-PEO4-Biotinylation-labelled EZH2 protein; recombinant protein", "T1 sequence (Q15910 whole entry)": "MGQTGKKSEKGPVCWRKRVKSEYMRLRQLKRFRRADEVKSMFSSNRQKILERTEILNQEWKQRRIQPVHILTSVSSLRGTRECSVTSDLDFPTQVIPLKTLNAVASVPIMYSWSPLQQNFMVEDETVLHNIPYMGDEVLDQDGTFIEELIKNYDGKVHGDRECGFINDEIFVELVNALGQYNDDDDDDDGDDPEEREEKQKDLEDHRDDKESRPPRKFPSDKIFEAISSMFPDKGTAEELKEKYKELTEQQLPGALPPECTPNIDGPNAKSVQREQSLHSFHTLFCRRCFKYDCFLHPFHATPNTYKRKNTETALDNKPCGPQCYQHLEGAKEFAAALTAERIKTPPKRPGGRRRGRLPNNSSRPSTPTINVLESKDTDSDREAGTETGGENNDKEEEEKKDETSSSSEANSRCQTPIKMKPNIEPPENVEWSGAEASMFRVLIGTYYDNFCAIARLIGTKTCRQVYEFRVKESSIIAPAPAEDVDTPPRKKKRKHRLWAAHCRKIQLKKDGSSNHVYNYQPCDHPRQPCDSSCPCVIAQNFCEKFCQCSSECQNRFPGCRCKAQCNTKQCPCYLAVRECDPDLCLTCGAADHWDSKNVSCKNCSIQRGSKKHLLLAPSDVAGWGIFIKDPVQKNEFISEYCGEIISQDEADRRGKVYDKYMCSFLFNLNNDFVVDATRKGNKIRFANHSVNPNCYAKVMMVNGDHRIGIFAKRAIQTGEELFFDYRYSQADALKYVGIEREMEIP", "assay": "KDM2B peptide array probed with biotin-EZH2 1 ug/ml, SA-HRP/ECL;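 also: Background-corrected optical density of each spot on the membrane, given as percent of the brightest spot (100%), color developed for 5 minutes; 100% is the highest background-corrected spot optical density on the membrane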", "units": {"Intensity (%)": "%"}, "values": [
      {"binder": "LRRFKQEPEDELPEA", "note": "[peptide 178]", "Intensity (%)": 0},
      {"binder": "YEKPQELSGRKRASS", "note": "[peptide 162]", "Intensity (%)": 0},
      {"binder": "TEGAEGPEEKKKVKM", "note": "[peptide 185]", "Intensity (%)": 0},
      {"binder": "YFQQQLKPGKEDKLF", "note": "[peptide 171]", "Intensity (%)": 0},
      {"binder": "LSPRPPLGSSLSPWW", "note": "[peptide 167]", "Intensity (%)": 0},
      {"binder": "LSPWWRSSLTYFQQQ", "note": "[peptide 169]", "Intensity (%)": 0},
      {"binder": "KKVKMRRKRRLPNKE", "note": "[peptide 187]", "Intensity (%)": 0.95},
      {"binder": "LKPGKEDKLFRKKRR", "note": "[peptide 172]", "Intensity (%)": 0},
      {"binder": "GDFVHAMEGKDFNYE", "note": "[peptide 17]", "Intensity (%)": 0},
      {"binder": "QEPEDELPEAPPKTR", "note": "[peptide 179]", "Intensity (%)": 0.39},
      {"binder": "HSKKVPPDGLLRRKS", "note": "[peptide 157]", "Intensity (%)": 18.4},
      {"binder": "EDRMALANKPLRRFK", "note": "[peptide 176]", "Intensity (%)": 0},
      {"binder": "GSSSHLSPRPPLGSS", "note": "[peptide 166]", "Intensity (%)": 0.84},
      {"binder": "PLGSSLSPWWRSSLT", "note": "[peptide 168]", "Intensity (%)": 0},
      {"binder": "SWKNAEDRMALANKP", "note": "[peptide 175]", "Intensity (%)": 0},
      {"binder": "EDKLFRKKRRSWKNA", "note": "[peptide 173]", "Intensity (%)": 0},
      {"binder": "ELPEAPPKTRESDHS", "note": "[peptide 180]", "Intensity (%)": 0},
      {"binder": "RRKRRLPNKELSREL", "note": "[peptide 188]", "Intensity (%)": 0.8},
      {"binder": "DFNYEYVQREALRVP", "note": "[peptide 19]", "Intensity (%)": 0},
      {"binder": "GPEEKKKVKMRRKRR", "note": "[peptide 186]", "Intensity (%)": 0},
      {"binder": "RKKRRSWKNAEDRMA", "note": "[peptide 174]", "Intensity (%)": 0.47},
      {"binder": "LPNKELSRELSKELN", "note": "[peptide 189]", "Intensity (%)": 0},
      {"binder": "LRRKSDDVHLRKKRK", "note": "[peptide 159]", "Intensity (%)": 0},
      {"binder": "RSSLTYFQQQLKPGK", "note": "[peptide 170]", "Intensity (%)": 2.26},
      {"binder": "SQLYQGDFVHAMEGK", "note": "[peptide 16]", "Intensity (%)": 1.87},
      {"binder": "LANKPLRRFKQEPED", "note": "[peptide 177]", "Intensity (%)": 0},
      {"binder": "RRSDEHSKKVPPDGL", "note": "[peptide 156]", "Intensity (%)": 0},
      {"binder": "RKKRKYEKPQELSGR", "note": "[peptide 161]", "Intensity (%)": 0},
      {"binder": "PPDGLLRRKSDDVHL", "note": "[peptide 158]", "Intensity (%)": 0}
    ]}
  ]
}
